Measurements as given in US20200024322A1 (Eli Lilly, published 2020).
Changes are numbered by the printed parent chain. Numbered stars: 1 amine (or outer) side, 2 acyl side, 3 side chain; on linkers, the order of the positions; unused ones are H or OH. Square brackets hold non-standard residues; d marks the D form. Side chains are listed from the residue outwards. Ends that are not written are not given here. * marks the point of attachment. C20 diacid = O=C(O)CCCCCCCCCCCCCCCCCCC(=O)*; γGlu = O=C(O)[C@H](CCC(=O)[*:2])N[*:1]; AEEA = NCCOCCOCC(=O)O; Aib = CC(C)(N)C(=O)O

Columns and labels:
human glucagon receptor = molecular target: T1, human glucagon receptor (human, UniProt P47871 26-477); experiment: SPA, [125I]-Gcg displacement, hGcgR membranes
T1 construct: whole, on cells; Used as crude membranes of stably transfected HEK293 cells; also called hGcgR; hGLcgR

human GLP-1 receptor = molecular target: T2, human GLP-1 receptor (human, UniProt P43220 24-463); experiment: SPA, [125I]-GLP-1 displacement, hGLP-1R membranes
T2 construct: whole, on cells; Used as crude membranes of stably transfected HEK293 cells; also called hGLP1R; hGLP-1R

human GIP receptor = molecular target: T3, human GIP receptor (human, UniProt P48546 22-466); experiment: SPA, [125I]-GIP displacement, hGIPR membranes
T3 construct: whole, on cells; Used as crude membranes of stably transfected CHO cells; also called hGIPR
T3 sequence (looked up): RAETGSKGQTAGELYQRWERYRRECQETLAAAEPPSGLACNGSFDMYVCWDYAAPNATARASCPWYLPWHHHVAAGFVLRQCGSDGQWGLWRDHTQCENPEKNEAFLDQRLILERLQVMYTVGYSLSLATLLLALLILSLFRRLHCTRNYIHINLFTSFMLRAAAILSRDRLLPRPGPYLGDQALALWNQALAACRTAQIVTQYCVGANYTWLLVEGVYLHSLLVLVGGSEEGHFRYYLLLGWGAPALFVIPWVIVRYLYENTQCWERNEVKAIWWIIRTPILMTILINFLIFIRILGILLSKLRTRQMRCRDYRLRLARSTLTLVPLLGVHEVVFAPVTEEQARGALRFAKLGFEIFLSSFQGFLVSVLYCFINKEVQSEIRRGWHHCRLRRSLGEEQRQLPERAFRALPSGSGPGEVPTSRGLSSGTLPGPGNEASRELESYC

T1 sequence (P47871 26-477): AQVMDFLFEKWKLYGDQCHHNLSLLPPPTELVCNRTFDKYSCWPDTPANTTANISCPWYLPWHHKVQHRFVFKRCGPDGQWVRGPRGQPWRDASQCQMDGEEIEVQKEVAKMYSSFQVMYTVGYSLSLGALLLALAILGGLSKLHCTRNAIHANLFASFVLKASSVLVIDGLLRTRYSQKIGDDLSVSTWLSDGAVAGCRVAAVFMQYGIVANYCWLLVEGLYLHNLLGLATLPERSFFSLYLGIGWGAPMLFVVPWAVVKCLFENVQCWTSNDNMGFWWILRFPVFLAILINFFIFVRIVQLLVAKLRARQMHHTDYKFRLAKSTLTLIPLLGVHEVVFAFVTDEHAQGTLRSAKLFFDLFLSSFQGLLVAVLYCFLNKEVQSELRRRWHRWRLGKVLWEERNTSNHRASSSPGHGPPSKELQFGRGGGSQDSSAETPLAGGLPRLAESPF

B1: Example 157 (peptide)
peptide: YXEGTXTSDXSIXLDEKAQXEFIEYLIEGGPSSGAPPPS
modifications: Aib2; αMeF(2F)6; 3Pal10; αMeL13; K17((2-[2-(2-Amino-ethoxy)-ethoxy]-acetyl)2-(γ-Glu)-CO-(CH2)18-CO2H); Aib20; C-terminal NH2
Ki (human glucagon receptor): 179 nM
Ki (human GLP-1 receptor): 8.97 nM
Ki (human GIP receptor): 0.0937 nM

B2: Example 206 (peptide)
peptide: B1 peptide with E24X
modifications: Aib2; αMeF(2F)6; 4Pal10; αMeL13; K17((2-[2-(2-Amino-ethoxy)-ethoxy]-acetyl)2-CO-(CH2)18-CO2H); Aib20; D-Glu24; C-terminal NH2
Ki (human glucagon receptor): 176 nM
Ki (human GLP-1 receptor): 5.27 nM
Ki (human GIP receptor): 0.0814 nM

B3: Example 181 (peptide)
peptide: B1 peptide with E24X
modifications: not printed (the compound name of this Example is missing from the table of Examples 6-287)
Ki (human glucagon receptor): 413 nM
Ki (human GLP-1 receptor): 7.28 nM
Ki (human GIP receptor): 0.145 nM

B4: Example 205 (peptide)
peptide: B1 peptide with E24X
modifications: Aib2; αMeF(2F)6; 4Pal10; αMeL13; K17((2-[2-(2-Amino-ethoxy)-ethoxy]-acetyl)2-CO-(CH2)16-CO2H); Aib20; D-Glu24; C-terminal NH2
Ki (human glucagon receptor): 438 nM
Ki (human GLP-1 receptor): 3.05 nM
Ki (human GIP receptor): 0.0367 nM

B5: Example 158 (peptide)
peptide: B1 peptide
modifications: Aib2; αMeF(2F)6; 4Pal10; αMeL13; K17((2-[2-(2-Amino-ethoxy)-ethoxy]-acetyl)2-(γ-Glu)-CO-(CH2)18-CO2H); Aib20; C-terminal NH2
Ki (human glucagon receptor): 285 nM
Ki (human GLP-1 receptor): 11.8 nM
Ki (human GIP receptor): 0.114 nM

B6: Example 189 (peptide)
peptide: B1 peptide with E24X
modifications: Aib2; αMeF(2F)6; 4Pal10; αMeL13; K17((2-[2-(2-Amino-ethoxy)-ethoxy]-acetyl)2-(γ-Glu)-CO-(CH2)18-CO2H); Aib20; Aib24; C-terminal NH2
Ki (human glucagon receptor): 146 nM
Ki (human GLP-1 receptor): 8.81 nM
Ki (human GIP receptor): 0.128 nM

B7: Example 182 (peptide)
peptide: B1 peptide with E24X
modifications: not printed (the compound name of this Example is missing from the table of Examples 6-287)
Ki (human glucagon receptor): 565 nM
Ki (human GLP-1 receptor): 4.64 nM
Ki (human GIP receptor): 0.0669 nM

B8: Example 207 (peptide)
peptide: B1 peptide with E24X
modifications: Aib2; αMeF(2F)6; 4Pal10; αMeL13; K17((2-[2-(2-Amino-ethoxy)-ethoxy]-acetyl)2-(εK)-CO-(CH2)18-CO2H); Aib20; D-Glu24; C-terminal NH2
Ki (human glucagon receptor): 74.2 nM
Ki (human GLP-1 receptor): 1.37 nM
Ki (human GIP receptor): 0.0786 nM

B9: Example 202 (peptide)
peptide: B1 peptide with E16K, E24X
modifications: Aib2; αMeF(2F)6; 4Pal10; αMeL13; K17((2-[2-(2-Amino-ethoxy)-ethoxy]-acetyl)-(γ-Glu)-(2-[2-(2-Amino-ethoxy)-ethoxy]-acetyl)-CO-(CH2)18-CO2H); Aib20; D-Glu24; C-terminal NH2
Ki (human glucagon receptor): 394 nM
Ki (human GLP-1 receptor): 5.38 nM
Ki (human GIP receptor): 0.0579 nM

B10: Example 203 (peptide)
peptide: B1 peptide with E16K, E24X
modifications: Aib2; αMeF(2F)6; 4Pal10; αMeL13; K17((2-[2-(2-Amino-ethoxy)-ethoxy]-acetyl)2-(γ-Glu)-CO-(CH2)18-CO2H); Aib20; D-Glu24; C-terminal NH2
Ki (human glucagon receptor): 845 nM
Ki (human GLP-1 receptor): 3.9 nM
Ki (human GIP receptor): 0.0337 nM

B11: Example 11 (peptide)
peptide: Y[Aib]EGTFTSDYSILLDSIAQ[Aib]AFIEYLLK([AEEA-AEEA-γGlu-C20 diacid])[Aib]GPSSGAPPPS-NH2
modifications: N-terminus assumed
SMILES: CC[C@H](C)[C@H](NC(=O)[C@H](CO)NC(=O)[C@H](CC(=O)O)NC(=O)[C@H](CC(C)C)NC(=O)[C@H](CC(C)C)NC(=O)[C@@H](NC(=O)[C@H](CO)NC(=O)[C@H](Cc1ccc(O)cc1)NC(=O)[C@H](CC(=O)O)NC(=O)[C@H](CO)NC(=O)[C@@H](NC(=O)[C@H](Cc1ccccc1)NC(=O)[C@@H](NC(=O)CNC(=O)[C@H](CCC(=O)O)NC(=O)C(C)(C)NC(=O)[C@@H](N)Cc1ccc(O)cc1)[C@@H](C)O)[C@@H](C)O)[C@@H](C)CC)C(=O)N[C@@H](C)C(=O)N[C@@H](CCC(N)=O)C(=O)NC(C)(C)C(=O)N[C@@H](C)C(=O)N[C@@H](Cc1ccccc1)C(=O)N[C@H](C(=O)N[C@@H](CCC(=O)O)C(=O)N[C@@H](Cc1ccc(O)cc1)C(=O)N[C@@H](CC(C)C)C(=O)N[C@@H](CC(C)C)C(=O)N[C@@H](CCCCNC(=O)COCCOCCNC(=O)COCCOCCNC(=O)CC[C@H](NC(=O)CCCCCCCCCCCCCCCCCCC(=O)O)C(=O)O)C(=O)NC(C)(C)C(=O)NCC(=O)N1CCC[C@H]1C(=O)N[C@@H](CO)C(=O)N[C@@H](CO)C(=O)NCC(=O)N[C@@H](C)C(=O)N1CCC[C@H]1C(=O)N1CCC[C@H]1C(=O)N1CCC[C@H]1C(=O)N[C@@H](CO)C(N)=O)[C@@H](C)CC
Ki (human glucagon receptor): 174 nM
Ki (human GLP-1 receptor): 15.7 nM
Ki (human GIP receptor): 0.226 nM
